# Data as given in patent publication US9650648.
# What was measured:
# Assay in all cases: cell_activity
# [1] = tested on: ZFN 34360 (gamma globin -175) (synthetic); settings: pair with 34363; K562, Cel-I
# [2] = tested on: ZFN 34400 (gamma globin -175) (synthetic); settings: pair with 34398; K562, Cel-I
# [3] = tested on: ZFN 34365 (gamma globin -175) (synthetic); settings: pair with 31160; K562; 45.22% in CD34+; 1.63X gamma mRNA
# [4] = tested on: TALEN 102314 (gamma globin promoter) (synthetic); settings: pair with 102318; K562, Cel-I; 2.14X gamma mRNA in CD34+
# [5] = tested on: ZFN 34363 (gamma globin -175) (synthetic); settings: pair with 34360; K562, Cel-I
# [6] = tested on: TALEN 101301 (BCL11A exon 4) (synthetic); settings: pair with 101304; CD34+ cells; 2.31X gamma mRNA
# [7] = tested on: ZFN 44904 (BCL11A-XL) (synthetic); settings: pair with 44905; K562
# [8] = tested on: ZFN 44889 (BCL11A-XL) (synthetic); settings: pair with 44888; K562
# [9] = tested on: ZFN 43545 (beta-globin IVS1.1) (synthetic); settings: pair with 43544; CD34+ cells
# [10] = tested on: ZFN 44910 (BCL11A-XL) (synthetic); settings: pair with 44911; K562
# [11] = tested on: TALEN 102316 (gamma globin promoter) (synthetic); settings: pair with 102321; K562, Cel-I
# [12] = tested on: TALEN 102321 (gamma globin promoter) (synthetic); settings: pair with 102316; K562, Cel-I
# [13] = tested on: TALEN 101292 (BCL11A exon 2) (synthetic); settings: pair with 101291; K562, Cel-I
# [14] = tested on: ZFN 43865 (gamma globin -110) (synthetic); settings: pair with 43852; CD34+ cells
# [15] = tested on: ZFN 34574 (gamma globin -110) (synthetic); settings: pair with 34539; CD34+ cells; 5.38X gamma mRNA
# [16] = tested on: TALEN 101291 (BCL11A exon 2) (synthetic); settings: pair with 101292; K562, Cel-I
# [17] = tested on: ZFN 44888 (BCL11A-XL) (synthetic); settings: pair with 44889; K562
# [18] = tested on: ZFN 31160 (gamma globin -175) (synthetic); settings: pair with 34365; K562; 45.22% in CD34+; 1.63X gamma mRNA
# [19] = tested on: TALEN 102318 (gamma globin promoter) (synthetic); settings: pair with 102314; K562, Cel-I; 2.14X gamma mRNA in CD34+
# [20] = tested on: ZFN 34678 (BCL11A exon 4) (synthetic); settings: pair with 34642; CD34+ cells; 3.52X gamma mRNA
# [21] = tested on: ZFN 36085 (KLF1 exon 2) (synthetic); settings: pair with 36071; CD34+ cells; 3.17X gamma mRNA
# [22] = tested on: ZFN 44493 (BCL11A exon 2) (synthetic); settings: pair with 39172; K562
# [23] = tested on: ZFN 39145 (BCL11A exon 2) (synthetic); settings: pair with 39172; CD34+ cells; 3.65X gamma mRNA
# [24] = tested on: ZFN 44490 (BCL11A exon 2) (synthetic); settings: pair with 39172; K562
# [25] = tested on: ZFN 45081 (BCL11A exon 2) (synthetic); settings: pair with 39172; K562
# [26] = tested on: ZFN 44489 (BCL11A exon 2) (synthetic); settings: pair with 39172; K562
# [27] = tested on: TALEN 102568 (gamma globin -110) (synthetic); settings: pair with 102566; CD34+ cells, MiSeq; 6.25X gamma mRNA
# [28] = tested on: ZFN 36071 (KLF1 exon 2) (synthetic); settings: pair with 36085; CD34+ cells; 3.17X gamma mRNA
# [29] = tested on: TALEN 101304 (BCL11A exon 4) (synthetic); settings: pair with 101301; CD34+ cells; 2.31X gamma mRNA
# [30] = tested on: ZFN 39172 (BCL11A exon 2) (synthetic); settings: pair with 39145; CD34+ cells; 3.65X gamma mRNA
# [31] = tested on: ZFN 45148 (BCL11A exon 2) (synthetic); settings: pair with 39145; K562; printed as 41548 in Table 1B, 45148 in Table 1A
# [32] = tested on: ZFN 44642 (BCL11A exon 2) (synthetic); settings: pair with 39145; K562
# [33] = tested on: ZFN 43490 (BCL11A exon 2) (synthetic); settings: pair with 39145; K562
# [34] = tested on: ZFN 45147 (BCL11A exon 2) (synthetic); settings: pair with 39145; K562; printed as 41547 in Table 1B, 45147 in Table 1A
# [35] = tested on: ZFN 44945 (BCL11A-XL) (synthetic); settings: pair with 44944; K562
# [36] = tested on: ZFN 43852 (gamma globin -110) (synthetic); settings: pair with 43865; CD34+ cells
# [37] = tested on: ZFN 34539 (gamma globin -110) (synthetic); settings: pair with 34574; CD34+ cells; 5.38X gamma mRNA
# [38] = tested on: ZFN 43544 (beta-globin IVS1.1) (synthetic); settings: pair with 43545; CD34+ cells
# [39] = tested on: ZFN 36021 (KLF1 exon 1) (synthetic); settings: pair with 36004; CD34+ cells; 2.2X gamma mRNA
# [40] = tested on: ZFN 36004 (KLF1 exon 1) (synthetic); settings: pair with 36021; CD34+ cells; 2.2X gamma mRNA
# [41] = tested on: ZFN 44947 (BCL11A-XL) (synthetic); settings: pair with 44946; K562
# [42] = tested on: ZFN 44946 (BCL11A-XL) (synthetic); settings: pair with 44947; K562
# [43] = tested on: ZFN 44944 (BCL11A-XL) (synthetic); settings: pair with 44945; K562
# [44] = tested on: TALEN 102566 (gamma globin -110) (synthetic); settings: pair with 102568; CD34+ cells, MiSeq; 6.25X gamma mRNA
# [45] = tested on: TALEN 102315 (gamma globin promoter) (synthetic); settings: pair with 102320; K562, Cel-I
# [46] = tested on: ZFN 44911 (BCL11A-XL) (synthetic); settings: pair with 44910; K562
# [47] = tested on: TALEN 102320 (gamma globin promoter) (synthetic); settings: pair with 102315; K562, Cel-I
# [48] = tested on: ZFN 34398 (gamma globin -175) (synthetic); settings: pair with 34400; K562, Cel-I
# [49] = tested on: ZFN 44905 (BCL11A-XL) (synthetic); settings: pair with 44904; K562
# [50] = tested on: ZFN 34642 (BCL11A exon 4) (synthetic); settings: pair with 34678; CD34+ cells; 3.52X gamma mRNA
sequence,measurement,setting,value
TTGCATTGAGATAGTGTGGGGAAGGGGC (double strand) [HBG -175 34360 site],activity,[1],39 % NHEJ
CTGTCTGAAACGGTCCCTGGCTAAACTC (double strand) [HBG -175 34400/34365 site],activity,[2],54 % NHEJ
same,activity,[3],53 % NHEJ
GTATCCTCTTGGGGGCC (double strand) [HBG TALEN 102314 site],activity,[4],41.6 % NHEJ
ATCTGTCTGAAACGGTCCCTGGCTAAAC (double strand) [HBG -175 34363 site],activity,[5],39 % NHEJ
ATGTCCTTCCCAGCCACCTCT (double strand) [BCL11A exon 4 TALEN 101301 site],activity,[6],35.7 % indels
TGGACAGTGAGATTGCTACAGTTCTTGA (double strand) [BCL11A-XL 44904 site],activity,[7],25.4 % indels
CTCACTGTCCACAGGAGAAGCCACACGG (double strand) [BCL11A-XL 44889 site],activity,[8],35.1 % indels
ATCAAGGTTACAAGACAGGTTTAAGGAG (double strand) [HBB IVS1.1 43545 site],activity,[9],52.6 % NHEJ
CTCCTGTGGACAGTGAGATTGCTACAGT (double strand) [BCL11A-XL 44910 site],activity,[10],36.4 % indels
GTATCCTCTTGGGGGCCCC (double strand) [HBG TALEN 102316 site],activity,[11],46.6 % NHEJ
ATATTTGCATTGAGATAG (double strand) [HBG TALEN 102321 site],activity,[12],46.6 % NHEJ
CTCGATAAAAATAAGAATGT (double strand) [BCL11A exon 2 TALEN 101292 site],activity,[13],0.8 % indels
GCCTTGACAAGGCAAACTTGACCAATAG (double strand) [HBG -110 34574/43865 site],activity,[14],56.1 % NHEJ
same,activity,[15],45.7 % NHEJ
CTGTGGGCAGTGCCAGATGA (double strand) [BCL11A exon 2 TALEN 101291 site],activity,[16],0.8 % indels
TTGCTACAGTTCTTGAAGACTTTCCCAC (double strand) [BCL11A-XL 44888 site],activity,[17],35.1 % indels
TATTTGCATTGAGATAGTGTGGGGAAGG (double strand) [HBG -175 31160 site],activity,[18],53 % NHEJ
ATATTTGCATTGAGATAGTGT (double strand) [HBG TALEN 102318 site],activity,[19],41.6 % NHEJ
ATATTGCAGACAATAACCCCTTTAACCT (double strand) [BCL11A exon 4 34678 site],activity,[20],82.2 % indels
CTTCTCGGGCCCGGAGCCCGGTGGCGCG (double strand) [KLF1 exon 2 36085 site],activity,[21],22.6 % indels
"CCCAACGGGCCGTGGTCTGGTTCATCAT (double strand) [BCL11A exon 2 site, SEQ 170]",activity,[22],25.7 % indels
same,activity,[23],69.8 % indels
same,activity,[24],29.4 % indels
same,activity,[25],27.8 % indels
same,activity,[26],24.3 % indels
TTGGTCAAGTTTGCCTTGTCA (double strand) [HBG -110 TALEN 102568 site],activity,[27],51.4 % NHEJ
GGTGAGGAGGAGATCCAGGTCCCAGGTG (double strand) [KLF1 exon 2 36071 site],activity,[28],22.6 % indels
GTTAAAGGGGTTATTGTCT (double strand) [BCL11A exon 4 TALEN 101304 site],activity,[29],35.7 % indels
"CTCCAGAAGGGGATCATGACCTCCTCAC (double strand) [BCL11A exon 2 site, SEQ 160]",activity,[30],69.8 % indels
same,activity,[31],42.3 % indels
same,activity,[32],38.5 % indels
same,activity,[33],19.9 % indels
same,activity,[34],35.6 % indels
AAGCTCACCAGGCACATGAAAACGCATG (double strand) [BCL11A-XL 44945 site],activity,[35],24 % indels
TGGTCAAGGCAAGGCTGGCCAACCCATG (double strand) [HBG -110 34539/43852 site],activity,[36],56.1 % NHEJ
same,activity,[37],45.7 % NHEJ
AATCTGCCCAGGGCCTCACCACCAACTT (double strand) [HBB IVS1.1 43544 site],activity,[38],52.6 % NHEJ
ACACACAGGATGACTTCCTCAAGGTGGG (double strand) [KLF1 exon 1 36021 site],activity,[39],44.4 % indels
GGGAAGGGGCCCAGGGCGGTCAGTGTGC (double strand) [KLF1 exon 1 36004 site],activity,[40],44.4 % indels
CTCACCAGGCACATGAAAACGCATGGCC (double strand) [BCL11A-XL 44947 site],activity,[41],34.2 % indels
CTACTCTGGGCACAGGCATAGTTGCACA (double strand) [BCL11A-XL 44944/44946 site],activity,[42],34.2 % indels
same,activity,[43],24 % indels
GTTGGCCAGCCTTGCCTTGAC (double strand) [HBG -110 TALEN 102566 site],activity,[44],51.4 % NHEJ
GTATCCTCTTGGGGGCCC (double strand) [HBG TALEN 102315 site],activity,[45],47.9 % NHEJ
GCCACACGGGCGAAAGGCCTTATAAATG (double strand) [BCL11A-XL 44911 site],activity,[46],36.4 % indels
ATATTTGCATTGAGATAGT (double strand) [HBG TALEN 102320 site],activity,[47],47.9 % NHEJ
TTTGCATTGAGATAGTGTGGGGAAGGGG (double strand) [HBG -175 34398 site],activity,[48],54 % NHEJ
GAGAAGCCACACGGGCGAAAGGCCTTAT (double strand) [BCL11A-XL 44905 site],activity,[49],25.4 % indels
ATCCCATGGAGAGGTGGCTGGGAAGGAC (double strand) [BCL11A exon 4 34642 site],activity,[50],82.2 % indels
